For orientation: Kd means the free concentration of one partner at which half of the binding sites on the other are occupied at equilibrium, for simple one-to-one binding. Usually koff stands for a measure of how fast the partners let go of each other. The term kon denotes the second-order rate constant of association. Broadly, the IC50 is the midpoint of a concentration-inhibition curve.

Seven molecules from US20110076723A1, “ANTIBODY-PEPTIDE FUSED SYNERGIBODY” (SAMSUNG ELECTRONICS CO., LTD., priority 2008, published 2011) can be followed below.

One assay deals with T1, recombinant hAng-2 (Homo sapiens, UniProt O15123).
T1 construct: His tag; purchased R&D Systems
T1 sequence (O15123 19-496): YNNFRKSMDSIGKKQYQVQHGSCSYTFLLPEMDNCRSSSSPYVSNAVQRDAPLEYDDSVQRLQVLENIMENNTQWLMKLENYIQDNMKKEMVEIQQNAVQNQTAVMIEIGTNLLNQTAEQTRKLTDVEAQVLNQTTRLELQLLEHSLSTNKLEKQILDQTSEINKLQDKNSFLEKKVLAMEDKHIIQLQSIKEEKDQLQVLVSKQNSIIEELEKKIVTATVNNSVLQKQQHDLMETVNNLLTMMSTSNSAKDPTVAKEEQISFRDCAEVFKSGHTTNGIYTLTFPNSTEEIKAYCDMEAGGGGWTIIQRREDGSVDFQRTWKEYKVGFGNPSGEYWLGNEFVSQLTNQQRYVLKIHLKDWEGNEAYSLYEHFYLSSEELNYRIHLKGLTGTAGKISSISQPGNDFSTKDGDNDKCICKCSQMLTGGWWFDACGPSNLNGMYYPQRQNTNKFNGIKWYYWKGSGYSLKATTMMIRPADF
Kind of assay: Affinity to Ang-2 antigen by surface plasmon resonance (BIAcore T100). It is filed as binding. The settings on record: SPR, hAng-2 on CM5 chip. As for the experimental part:
(§1) The SPR method using BIAcore T100 (GE Healthcare) is used to accurately measure the affinity to the Ang-2 antigens. 20 μg/ml recombinant hAng-2 (R&D Systems) is fixed on a sensor chip CM5 (GE Healthcare) using pH4.5 acetate solution and amine coupling kit (GE Healthcare). The antibodies obtained in Section 2 above are diluted to eight different concentrations down to 0.78125 nM by diluting to ½ each time starting from 100 nM. Then the antigen/antibody affinity is measured by causing the antigens to repeatedly bind and disassociate with the antibodies fixed on the sensor chip (using pH2.2 glycine-HCl solution).
On the technique in general: Surface plasmon resonance follows binding to a sensor surface in real time, without labels.

Assay [1] has as its target T2, recombinant hAng-2 (recombinant protein with His tag attached to human Ang-2; R&D Systems) (human, UniProt O15123 19-496).
T2 construct: also called angiopoietin-2; ANGPT2
T2 sequence (looked up): T1 sequence (O15123 19-496)
Briefly: SPR, BIAcore T100; hAng-2 amine-coupled on CM5, antibody 100 to 0.78125 nM. As for the experimental part: as §1

Assay [2] deals with T2, recombinant hAng-2 (recombinant protein …). Kind of assay: competitive ELISA; antibody titrated with 1 nM hAng-2 (His) on coated hTie2-Fc. As for the experimental part:
A competitive ELISA is performed to assess the molecular interaction of the binders. A 96-well MaxiSorp™ flat-bottom plate (Nunc) is coated with hTie2-Fc (R&D Systems), which is a fused protein including the water-soluble extracellular portion of human Tie-2 and Fc of human IgG₁ dissolved in DMEM culture solution containing 50 μg/ml bovine serum albumin (BSA). The concentration of hTie2-Fc used as a coating material is equivalent to 75% of its maximum binding concentration with 1 nM of recombinant hAng-2 (recombinant protein with His tag attached to human Ang-2; R&D Systems). Then the plate is washed five times with Phosphate Buffer Saline (PBS) containing 0.1% Tween-20 and blocked at room temperature for two hours with PBS containing 5% BSA. Each anti-Ang-2 antibodies are diluted from 100 nM by one-fourth each time with PBS containing 1% BSA and 1 nM hAng-2 and adjusted to 6.1 pM for Ang-2:Tie-2 neutralization ELISA. 100 μl of antibody/hAng-2 solutions are placed in each corresponding well and left to react at room temperature for two hours. Then the wells are washed five times with PBS containing 0.1% Tween-20, and the anti-His antibodies (GE Healthcare) are diluted to about 1:3,000 with PBS containing 1% BSA and left to react at room temperature for one hour. Afterwards, 100 μl of goat anti-mouse-IgG-HRP (Pierce) diluted with PBS containing 1% BSA to about 1:10,000 is added to each well of the plate, left to react at room temperature for one hour, and washed with PBS containing 0.1% Tween-20 five times. Lastly, 100 μl of TMB substrate (SIGMA) is added to each well of the plate to induce color reaction, and the reaction is stopped by adding 50 μl of 5N H₂SO₄ solution. The OD₄₅₀ value is read on a plate reader (Molecular Devices).
Background: In an ELISA, binding on a coated surface is turned into a signal by an enzyme label.

Assay [3] addresses T3, recombinant VEGFR-2 protein (water soluble extracellular site of human VEGFR-2 with Fc of human IgG1 connected thereto, R&D Systems) (human), P35968.
T3 chain: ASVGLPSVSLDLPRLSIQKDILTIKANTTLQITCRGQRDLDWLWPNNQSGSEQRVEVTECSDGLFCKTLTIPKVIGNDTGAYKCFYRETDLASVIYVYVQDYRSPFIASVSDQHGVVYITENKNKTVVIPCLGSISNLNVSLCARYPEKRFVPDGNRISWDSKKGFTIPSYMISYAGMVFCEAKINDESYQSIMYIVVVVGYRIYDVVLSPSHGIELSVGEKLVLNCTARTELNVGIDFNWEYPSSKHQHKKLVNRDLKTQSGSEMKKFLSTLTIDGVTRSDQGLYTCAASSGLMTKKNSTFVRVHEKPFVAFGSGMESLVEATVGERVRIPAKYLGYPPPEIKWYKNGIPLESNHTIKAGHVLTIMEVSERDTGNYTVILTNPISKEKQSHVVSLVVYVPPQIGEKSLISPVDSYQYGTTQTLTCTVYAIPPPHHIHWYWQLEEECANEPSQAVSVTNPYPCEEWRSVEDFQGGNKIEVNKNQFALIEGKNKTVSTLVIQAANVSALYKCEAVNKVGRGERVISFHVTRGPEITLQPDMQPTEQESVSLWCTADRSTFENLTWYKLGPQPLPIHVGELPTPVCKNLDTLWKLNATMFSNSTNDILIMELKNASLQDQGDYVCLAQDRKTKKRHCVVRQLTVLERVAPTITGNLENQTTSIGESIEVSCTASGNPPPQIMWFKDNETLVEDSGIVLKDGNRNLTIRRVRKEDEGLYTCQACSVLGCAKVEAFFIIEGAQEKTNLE
Kind of assay: competitive ELISA; peptide titrated with 1 nM VEGFR-2 on coated VEGF 165.

B1: SAITAng-2-4 (antibody, V domains shown)
VH: QVQLQQSGAELARPGASVKLSCKASGYTFTDYYINWAKQRTGQGLEWIGEIYPGSGDTYYNEKFKGKATLTADKSSSTAYMQLSSLTSEDSAVYFCARYGYKGVYFDYWGQSTTLTVSS
VL: ENVLTQSPAIMAASLGQKVTMTCSASSSVSSSYLHWYQQKSGASPKPLIHRTSNLASGVPARFSGSGSGTSYSLTISSVEAEDDATYYCQQWSGYPFTFGAGTKLELK
notes: Mouse monoclonal anti-Ang-2 antibody purified from hybridoma culture
With B1, in the assay with recombinant hAng-2, the “Off Rate” value stood at 0.0004769 s⁻¹ and the “On rate” value worked out at 512100 M⁻¹ s⁻¹. In addition, in assay [1], the equilibrium dissociation constant (Kd) worked out at 0.931 nM, the off-rate constant (koff) amounted to 0.000477 s⁻¹ and the kon was 512000 M⁻¹ s⁻¹. In assay [2], the IC50 is 1.01 nM.

B2: SAITAng-2-3 (antibody, V domains shown)
VH: DVQLVESGGGLVQPGGSRKLSCAASGFTFSSFGMHWVRQAPEKGLEWVAYISSDSSTIYYADTVKGRFTISRDNPKNTLFLQMTSLRSEDTAMYYCAREGGYDDYYAMDYWGQGTSVTVSS
VL: DIQMTQSPASQSASLGESVTITCLASQTIGTWLAWYQQKPGKSPQLLIYAATSLADGVPSRFSGSGSGTKFSFKISSLQAEDFVSYYCQQLYSIPLTFGGGTKLEIK
notes: as for B1
Consider B2, for which, in the assay with recombinant hAng-2, the “Off Rate” value was 0.0003023 s⁻¹ and the “On rate” value was determined as 501200 M⁻¹ s⁻¹. For the same molecule, in assay [1], the Kd amounted to 0.603 nM, the koff is 0.000302 s⁻¹ and the kon is 501000 M⁻¹ s⁻¹. Moreover, the IC50 in assay [2] is 0.822 nM.

Consider TGSGRMCDGSGPPTNCWFT (modifications not checked) [DTN10VEGFR-2-4], for which the IC50 in assay [3] stood at 46.9 nM.

For the molecule EAGAYWCKAWGLSPCLVT (modifications not checked) [DTN9VEGFR-2-3], the half-inhibitory concentration (IC50) in assay [3] was 61.9 nM.

For the molecule PGSQGYCHLNMRYQWICDSE (modifications not checked) [DTN11VEGFR-2-5], the IC50 in assay [3] stood at 50.7 nM.

For the molecule EAGKETCGYEWQYCPRP (modifications not checked) [DTN8VEGFR-2-2], in assay [3], the IC50 came to 49.5 nM.

B3: SAITAng-2-2 (antibody, V domains shown)
VH: QVQLQQSGPELVKPGASVKMSCKASGYTFTDYVISWVKQRTGQGLEWIGEIYPGSGSTYYNEKFKGKASLTADKSSNTAYMQLSSLTSADSAVYFCVRSRGDYYAMDYWGQGTSVTVSS
VL: DIQMTQSPSSLSASLGGKVTITCKASQDINNYITWYQHKPGKGPRLLIHYTSTLQPGIPSRFSGSGSGRDYSFSISNLEPEDIATYYCLQYDNLLTFGGGTKLEIK
notes: as for B1
As to B3, in the assay with recombinant hAng-2, the “Off Rate” value was 0.0004769 s⁻¹ and the “On rate” value was determined as 433200 M⁻¹ s⁻¹. For the same molecule, in assay [1], the Kd was found to be 1.1 nM, the koff amounted to 0.000477 s⁻¹ and the kon came to 433000 M⁻¹ s⁻¹. In assay [2], the half-inhibitory concentration (IC50) is 1.86 nM.
